This is an account of results in US20210130454A1 (BLUEFIN BIOMEDICINE, published 2021).

Test [1] deals with T1, recombinant human SEZ6L2 (extracellular portion of human SEZ6L2 fused to six C-terminal histidine-tag repeats) (human, UniProt Q6UXD5 28-844).
T1 construct: also called SEZ6L2-his; recombinant SEZ6L2
Description: BLI (ForteBio Octet Red96), antibody on Protein A biosensors, recombinant target protein in solution.

The target in test [2] is T2, recombinant cynomolgus monkey SEZ6L2 (cynomolgus monkey, UniProt G7Q0V6 28-844).
T2 construct: The construct is not described; also called cynomolgus monkey SEZL2
The test is described as above.

Test [3] concerns the target T3, human SEZ6 on cells (293-SEZ6) (human, UniProt Q53EL9 20-994).
T3 construct: whole, on cells; also called Seizure Protein 6 Homolog
T3 sequence (looked up): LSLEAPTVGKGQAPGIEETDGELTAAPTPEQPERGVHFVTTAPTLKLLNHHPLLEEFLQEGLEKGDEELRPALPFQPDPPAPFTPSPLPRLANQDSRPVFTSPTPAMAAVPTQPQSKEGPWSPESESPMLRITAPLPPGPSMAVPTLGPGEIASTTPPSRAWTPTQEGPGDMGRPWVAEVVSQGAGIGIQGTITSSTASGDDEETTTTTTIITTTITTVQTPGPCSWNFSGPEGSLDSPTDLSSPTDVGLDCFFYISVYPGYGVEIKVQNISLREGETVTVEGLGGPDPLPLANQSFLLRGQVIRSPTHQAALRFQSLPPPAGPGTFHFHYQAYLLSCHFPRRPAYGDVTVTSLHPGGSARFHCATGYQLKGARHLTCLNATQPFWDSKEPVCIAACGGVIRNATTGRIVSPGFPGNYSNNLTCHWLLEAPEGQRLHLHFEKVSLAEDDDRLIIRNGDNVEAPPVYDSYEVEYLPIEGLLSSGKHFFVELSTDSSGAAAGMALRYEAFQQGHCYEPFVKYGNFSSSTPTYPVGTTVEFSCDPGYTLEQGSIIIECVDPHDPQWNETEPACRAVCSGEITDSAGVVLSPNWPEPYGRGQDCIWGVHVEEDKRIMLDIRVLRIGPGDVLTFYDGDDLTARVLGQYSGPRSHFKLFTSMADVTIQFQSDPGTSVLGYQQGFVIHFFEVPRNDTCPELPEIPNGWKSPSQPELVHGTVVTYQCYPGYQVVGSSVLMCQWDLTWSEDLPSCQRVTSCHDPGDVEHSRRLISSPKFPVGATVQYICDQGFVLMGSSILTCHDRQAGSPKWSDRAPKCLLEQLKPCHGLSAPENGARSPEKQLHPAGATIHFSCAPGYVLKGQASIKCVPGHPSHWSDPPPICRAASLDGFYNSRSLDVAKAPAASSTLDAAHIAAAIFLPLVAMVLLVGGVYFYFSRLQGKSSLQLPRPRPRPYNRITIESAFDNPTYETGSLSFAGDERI
Description: flow cytometry on live 293-SEZ6 cells, Alexa Fluor 488 anti-human IgG secondary [panel D].

For test [4], the target named is T4, human SEZ6L on cells (293-SEZ6L) (human, UniProt Q9BYH1 29-1024).
T4 construct: whole, on cells; also called Seizure 6-like Protein
T4 sequence (looked up): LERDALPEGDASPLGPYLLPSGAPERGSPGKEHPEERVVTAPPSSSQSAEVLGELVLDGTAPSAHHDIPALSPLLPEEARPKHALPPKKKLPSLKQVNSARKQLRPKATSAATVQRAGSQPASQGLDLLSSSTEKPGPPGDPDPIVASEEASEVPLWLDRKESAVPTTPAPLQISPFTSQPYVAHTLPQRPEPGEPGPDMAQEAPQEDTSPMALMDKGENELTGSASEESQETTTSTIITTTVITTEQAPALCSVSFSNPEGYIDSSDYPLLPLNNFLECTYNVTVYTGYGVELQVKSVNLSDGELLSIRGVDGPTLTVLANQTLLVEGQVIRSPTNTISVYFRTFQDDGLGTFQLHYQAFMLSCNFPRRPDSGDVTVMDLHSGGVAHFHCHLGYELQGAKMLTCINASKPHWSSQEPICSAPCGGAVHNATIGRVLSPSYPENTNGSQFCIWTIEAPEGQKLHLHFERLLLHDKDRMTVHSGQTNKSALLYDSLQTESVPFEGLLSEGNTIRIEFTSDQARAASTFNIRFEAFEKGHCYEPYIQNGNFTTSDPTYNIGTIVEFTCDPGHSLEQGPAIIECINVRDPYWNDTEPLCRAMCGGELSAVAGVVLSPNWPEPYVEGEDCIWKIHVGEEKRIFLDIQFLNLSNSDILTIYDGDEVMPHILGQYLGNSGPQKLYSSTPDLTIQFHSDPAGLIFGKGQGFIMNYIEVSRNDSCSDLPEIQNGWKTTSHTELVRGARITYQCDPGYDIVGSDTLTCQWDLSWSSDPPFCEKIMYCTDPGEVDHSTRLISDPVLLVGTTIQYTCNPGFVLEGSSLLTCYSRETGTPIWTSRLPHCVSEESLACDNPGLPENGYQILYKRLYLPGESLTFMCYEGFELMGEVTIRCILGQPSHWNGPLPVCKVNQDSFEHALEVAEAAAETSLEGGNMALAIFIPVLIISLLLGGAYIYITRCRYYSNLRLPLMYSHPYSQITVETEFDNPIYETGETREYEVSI
Put plainly: flow cytometry on live 293-SEZ6L cells, Alexa Fluor 488 anti-human IgG secondary [panel D].

Test [5] deals with T3, human SEZ6 on cells (293-SEZ6). Description: flow cytometry on live 293-SEZ6 cells, Alexa Fluor 488 anti-human IgG secondary [panel C].
Test [6] concerns the target T4, human SEZ6L on cells (293-SEZ6L). Description: flow cytometry on live 293-SEZ6L cells, Alexa Fluor 488 anti-human IgG secondary [panel C].
The target in test [7] is T3, human SEZ6 on cells (293-SEZ6). Description: flow cytometry on live 293-SEZ6 cells, Alexa Fluor 488 anti-human IgG secondary [continued), panel L].
In test [8] the target is T4, human SEZ6L on cells (293-SEZ6L). Description: flow cytometry on live 293-SEZ6L cells, Alexa Fluor 488 anti-human IgG secondary [continued), panel L].
The target in test [9] is T3, human SEZ6 on cells (293-SEZ6). Description: flow cytometry on live 293-SEZ6 cells, Alexa Fluor 488 anti-human IgG secondary [continued), panel E].
Test [10] addresses T4, human SEZ6L on cells (293-SEZ6L). Put plainly: flow cytometry on live 293-SEZ6L cells, Alexa Fluor 488 anti-human IgG secondary [continued), panel E].
Test [11] concerns the target T3, human SEZ6 on cells (293-SEZ6). Description: flow cytometry on live 293-SEZ6 cells, Alexa Fluor 488 anti-human IgG secondary [continued), panel J].
Test [12] deals with T4, human SEZ6L on cells (293-SEZ6L). Description: flow cytometry on live 293-SEZ6L cells, Alexa Fluor 488 anti-human IgG secondary [continued), panel J].
Test [13] has as its target T3, human SEZ6 on cells (293-SEZ6). Put plainly: flow cytometry on live 293-SEZ6 cells, Alexa Fluor 488 anti-human IgG secondary [continued), panel K].
Test [14] addresses T4, human SEZ6L on cells (293-SEZ6L). Put plainly: flow cytometry on live 293-SEZ6L cells, Alexa Fluor 488 anti-human IgG secondary [continued), panel K].
Test [15] concerns the target T3, human SEZ6 on cells (293-SEZ6). Description: flow cytometry on live 293-SEZ6 cells, Alexa Fluor 488 anti-human IgG secondary [panel B].
Test [16] addresses T4, human SEZ6L on cells (293-SEZ6L). Put plainly: flow cytometry on live 293-SEZ6L cells, Alexa Fluor 488 anti-human IgG secondary [panel B].
The target of test [17] is T5, human SEZ6L2 on cells (293-SEZ6L2, HEK 293 cells transfected with human SEZ6L2, and SEZ6L2-expressing tumor … (human, UniProt Q6UXD5 28-910)).
T5 construct: Tumor cell lines express the endogenous protein; also called hSEZ6L2
Put plainly: flow cytometry on live 293-SEZ6L2 cells, primary antibody 1 ug/ml, Alexa Fluor 488 anti-human IgG secondary [panel B].

T1 sequence (Q6UXD5 other isoform, or with tags, fused parts or gaps): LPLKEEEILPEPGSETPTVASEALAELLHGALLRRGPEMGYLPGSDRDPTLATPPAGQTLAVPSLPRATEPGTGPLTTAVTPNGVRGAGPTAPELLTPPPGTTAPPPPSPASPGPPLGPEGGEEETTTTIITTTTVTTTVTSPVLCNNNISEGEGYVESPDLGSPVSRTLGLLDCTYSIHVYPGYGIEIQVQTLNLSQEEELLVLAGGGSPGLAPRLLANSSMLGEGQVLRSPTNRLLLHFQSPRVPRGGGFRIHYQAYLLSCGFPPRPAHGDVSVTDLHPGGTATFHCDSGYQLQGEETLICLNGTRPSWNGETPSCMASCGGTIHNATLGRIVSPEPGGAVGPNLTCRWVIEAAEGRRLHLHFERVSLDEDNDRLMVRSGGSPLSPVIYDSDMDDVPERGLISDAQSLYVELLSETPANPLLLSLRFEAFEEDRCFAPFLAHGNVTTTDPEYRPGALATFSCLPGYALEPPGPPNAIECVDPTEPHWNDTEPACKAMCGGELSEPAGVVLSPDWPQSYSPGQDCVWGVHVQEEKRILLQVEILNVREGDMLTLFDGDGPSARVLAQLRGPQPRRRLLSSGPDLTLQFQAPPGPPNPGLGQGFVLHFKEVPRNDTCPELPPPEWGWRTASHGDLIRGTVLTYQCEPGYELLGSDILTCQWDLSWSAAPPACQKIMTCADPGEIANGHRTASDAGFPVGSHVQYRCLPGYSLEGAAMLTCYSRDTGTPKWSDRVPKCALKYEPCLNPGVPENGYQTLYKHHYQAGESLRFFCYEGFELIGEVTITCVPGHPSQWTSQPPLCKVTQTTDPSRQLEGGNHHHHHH
T5 sequence (Q6UXD5 28-910): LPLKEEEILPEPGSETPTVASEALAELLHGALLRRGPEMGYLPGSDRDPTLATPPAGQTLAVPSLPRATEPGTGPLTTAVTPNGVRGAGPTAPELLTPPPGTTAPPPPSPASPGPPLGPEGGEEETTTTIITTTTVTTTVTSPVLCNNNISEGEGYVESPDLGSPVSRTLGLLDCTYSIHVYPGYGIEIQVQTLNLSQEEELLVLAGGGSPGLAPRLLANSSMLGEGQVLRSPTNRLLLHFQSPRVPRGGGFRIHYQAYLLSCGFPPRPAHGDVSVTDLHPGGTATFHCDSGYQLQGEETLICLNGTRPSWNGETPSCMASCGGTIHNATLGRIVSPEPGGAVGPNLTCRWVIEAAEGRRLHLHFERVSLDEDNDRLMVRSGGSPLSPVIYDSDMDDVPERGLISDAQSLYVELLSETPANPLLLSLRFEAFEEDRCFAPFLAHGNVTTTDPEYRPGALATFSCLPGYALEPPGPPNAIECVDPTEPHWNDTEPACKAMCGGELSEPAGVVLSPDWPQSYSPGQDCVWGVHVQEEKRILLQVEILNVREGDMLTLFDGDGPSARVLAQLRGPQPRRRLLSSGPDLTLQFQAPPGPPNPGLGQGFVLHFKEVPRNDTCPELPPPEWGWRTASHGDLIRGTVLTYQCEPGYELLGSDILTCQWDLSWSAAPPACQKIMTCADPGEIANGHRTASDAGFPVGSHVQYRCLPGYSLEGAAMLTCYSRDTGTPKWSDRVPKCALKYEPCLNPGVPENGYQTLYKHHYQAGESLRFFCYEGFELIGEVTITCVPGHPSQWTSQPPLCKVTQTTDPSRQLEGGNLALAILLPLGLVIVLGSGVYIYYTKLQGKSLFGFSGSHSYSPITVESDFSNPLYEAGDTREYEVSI

B1: human anti-SEZ6L2 antibody 3A2 (antibody, V domains shown)
VH: QVQLQESGPGLVKPSGTLSLTCAVSGGSISSYHWWSWVRQPPGKGLEWIGEIYHSGSTNYNPSLKSRVTISVDKSKNQFSLKLSSVTAADTAVYYCARWGRIAVADYWGQGTLVTVSS
VL: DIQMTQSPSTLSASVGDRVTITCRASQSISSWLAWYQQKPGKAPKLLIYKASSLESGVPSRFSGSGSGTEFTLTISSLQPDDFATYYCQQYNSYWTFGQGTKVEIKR
notes: Fully human antibody from H2L2 mice
Turning to B1, the Kd in test [1] and in test [2] was 3 nM in each case. Moreover, the binding result in test [3] and in test [4] was “no binding (tested: 1 ug/ml)” in each case.

B2: human anti-SEZ6L2 antibody 3A1 (antibody, V domains shown)
VH: QVQLVQSGAEVKKPGASVKVSCKASGFTFTGYYILWMRQAPGQGLEWMGWINPNNGGTHYAQKFQGRVTMTRDTSISTAYMELSRLRSDDTAVYYCARDSGHDWYFDLWGRGTLVTVSS
VL: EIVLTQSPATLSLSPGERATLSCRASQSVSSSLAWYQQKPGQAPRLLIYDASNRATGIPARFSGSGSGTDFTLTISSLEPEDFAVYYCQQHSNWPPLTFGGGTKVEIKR
notes: Fully human antibody from H2L2 mice; it was captured on Protein A and detected with anti-human IgG
As for B2, the Kd in test [1] and in test [2] was 0.3 nM each time. The binding result in [5] and in [6] was “no binding (tested: 1 ug/ml)” each time.

B3: humanized anti-SEZ6L2 antibody 20C4 (antibody, human IgG1, V domains shown)
VH: EVQLVESGGGLVQPGGSLRLSCAASGFTFTDYYMSWVRQAPGKGLEWVALIRNKANGYTTEYSASVKGRFTISRDNSKNSLYLQMNSLRAEDTAVYYCARNGLYGLFAYWGQGTLVTVSS
VL: DIVMTQTPLSIPVTPGEPASISCRSSTSLLESSGKHRLYWYLQKPGQSPQLLIYYMSNLASGVPDRFSGSGSGTDFTLKISRVEAEDFGVYYCMQSLEYPLTFGAGTKVEIKR
notes: also called 20C4:red
Turning to B3, the Kd in test [1] and in test [2] was 3 nM throughout. Moreover, the binding result in test [7] and in test [8] was “no binding (tested: 1 ug/ml)” each time.

B4: human anti-SEZ6L2 antibody 3A3 (antibody, V domains shown)
VH: QVQLQESGPGLVKPSGTLSLTCAVSGGSISSSNWWSWVRQPPGKGLEWIGEIYHSGSTNYNPSLKSRVTISVDKSKNQFSLKLSSVTAADTAVYYCAAYSGSYFEYWGQGTLVTVSS
VL: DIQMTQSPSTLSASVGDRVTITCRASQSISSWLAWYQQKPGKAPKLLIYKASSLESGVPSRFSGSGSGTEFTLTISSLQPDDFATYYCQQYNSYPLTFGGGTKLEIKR
notes: as for B1
B4: the Kd in test [1] was 24 nM; in test [2] it was 26 nM. The binding result in test [9] and in test [10] was “no binding (tested: 1 ug/ml)” each time.

B5: humanized anti-SEZ6L2 antibody 3E2 (antibody, human IgG1, V domains shown)
VH: EVQLVESGGGLVQPGGSLKLSCAASGFSFNTITMNWVRQASGKGLEWVGRIRSKSNNYATYYADAVKDRFTISRDDSKNTAYLQMNSLKTEDTAVYYCVRGIFSGYVYAMDYWGQGTLVTVSS
VL: DVVMTQSPLSLPVTVGQPASISCRSSQSIVHSNGNTYLEWFQQRPGQSPRVLIYKVSNRFSGVPDRFSGSGSGTDFTLKISRVEAEDVGVYYCFQGSHVPYTFGGGTKLEIKR
notes: also called 3E2:7D4
For B5, the Kd in [1] and in test [2] was 2 nM in each case. The binding result in test [11] and in [12] was “no binding (tested: 1 ug/ml)” each time.

B6: humanized anti-SEZ6L2 antibody 16H8 (antibody, human IgG1, V domains shown)
VH: QIQLVQPGAEVKKPGASVKVSCKASGYTFTSYWMYWVRQAPGQGLEWMGAIYPRDSDTSYNQKFKGRVTMTRVTSTSTVYMELSSLRSEDTAVYYCTRGDYYYGSSYYAMDYWGQGTTVTVSS
VL: DIVMTQSPLSLPVTPGEPASISCSSSKSLLHSNGITYLYWYLQKPGQSPQLLIYRMSNLASGVPDRFSGSGSGTDFTLKISRVEAEDVGVYYCAQMLERPYTFGQGTKVEIKR
notes: Humanized from mu16H8; also called 16H8:A3F5
Take B6: the Kd in [1] is 2 nM. In addition, the binding result in test [13] and in test [14] was “no binding (tested: 1 ug/ml)” throughout.

B7: human anti-SEZ6L2 antibody 1C6 (antibody, V domains shown)
VH: QVQLQESGPGLVKPSETLSLTCTVSGGSISSYYWSWIRQPPGKGLEWIGYIYNSGSTNYNPSLKSRVTISVDTSKNQFSLKLSSVTAADTAVYYCARRGDQGYWYFDLWGRGTLVTVSS
VL: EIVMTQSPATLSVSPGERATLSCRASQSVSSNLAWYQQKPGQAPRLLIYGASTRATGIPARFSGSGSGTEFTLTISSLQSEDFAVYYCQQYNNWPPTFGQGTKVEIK
notes: also called 106
For B7, the binding result in test [15] is recorded as “no binding (tested: 1 ug/ml)”; in test [16], “no binding (tested: 1 ug/ml)”; in test [17], “binds”.
